# Results reported in the RNAGym collection of RNA variant scans (doi:10.1073/pnas.2313332121).
# Fewer inactive variants are shown than the library holds.
# B1: TPR 5TU (parent)
# chain: GGAUCUUCUCGAUCUAACAAAAAAGACAAAUCUGCCACAAAGCUUGAGAGCAUCUUCGGAUGCAGAGGCGGCAGCCUUCGGUGGCGCGAUAGCGCCAACGUUCUCAACUAUGACACGCAAAACGCGUGCUCCGUUGAAUGGAGUUUAUCAUG
# Variants of: B1
# Experiment: polymerase ribozyme fitness, log enrichment relative to wild type (log ratio); higher = more active; in vitro selection for triplet polymerase activity
# Summary of the method: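 Fitness is a logarithmic measure of how a genotype enriched relative to the wild type, with replicate averages weighted by inverse variance. The logarithm uses base 2, and enrichment came from Illumina sequencing of input and output libraries. Those libraries were PCR-built, transcribed mutants of each subunit of a heterodimeric triplet polymerase ribozyme, passed through one triplicate in vitro selection round that included frozen incubation at −7 °C, gel excision of extended constructs and streptavidin-bead capture. Genotypes were kept only if they had ≥10 input reads and ≥1 read per output.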
row,Variant,polymerase ribozyme fitness (log ratio)
1,U55A A60G C76G C87G C96U U139A G140C,≤ -4.2
2,U55A C69U C93U,-3.95
3,C54G G80U C103A,≤ -4.2
4,C54G U109C C116U C131U A147U,-1.86
5,U55A G128A,-4.18
6,U55A C87U U146A,-1.36
7,U55A A60U G84U C116G A119U,-2.63
8,U55A A142U,-0.464
9,C54U G84A C105A,-0.565
10,C54U U56A G86A U102A C116A,-2.55
11,C54U A91C,≤ -4.2
12,C54U A91U,≤ -4.2
13,C54U G74C,-3.95
14,U55A G136A,-0.833
15,U55A C72U C76U U78C G84A,-2.57
16,C54U A60U C87U G94U U101G U109C C116U C118U G152C,≤ -4.2
17,C54U C93U C96G U135A,-3.57
18,U55A U61A A91U A97C A142G,≤ -4.2
19,C54U G136A,0.306
20,U55A G100A,≤ -4.2
21,C54U C75G U78C C79A G80U,≤ -4.2

row,Variant,polymerase ribozyme fitness (log ratio)
1,U55A U61A C79A G83A U90G G143A,≤ -4.2
2,C54G U55A G94U A98C U146G,-3.37
3,C54U U61A G84U C108G G140U,≤ -4.2
4,U55A G84A G86A C93U C105U,-1.1
5,U55A C63A G83C G84U C125G U135A,≤ -4.2
6,U55A C57G C87G C93U U104G,≤ -4.2
7,C54G G94A C108A C125U,≤ -4.2
8,U55A C72A C99U G126A U139C,≤ -4.2
9,U55A G81A C93U C105A C118U,-3.74
10,C54G G84U,-1.6
11,C54U C93G U145A,≤ -4.2
12,C54U,-0.314
13,U55A G80A,-1.65
14,U55A G59A,1.69
15,C54U A110C C114U A121U,-4.15
16,C54U G141A U151G,≤ -4.2
17,U55A C93U,-1.68
18,U55A A113U A121G U139G G141U U144A,≤ -4.2
19,U55A G84U G152C,-3.48
20,C54U C85A C96U A97C A98G A121U,≤ -4.2
21,U55A C93U C95U C96U,-3

row,Variant,polymerase ribozyme fitness (log ratio)
1,C54U G65U G81A C93U A97U,≤ -4.2
2,U55A G83U,-1.69
3,U55A C63G A121U,-0.282
4,U55A C129A,-2.11
5,U55A C76U C93U C95U G143A,-2.72
6,C54U G84A U146G,-1.56
7,C54U C93G,-3.72
8,C54U C93U,-1.99
9,U55A A119G U139G,0.219
10,C54U U55C C72U C87A,≤ -4.2
11,C54U G59C A97U,-0.658
12,U55A G62A C87U C103U,-1.44
13,U55A C87G C149G,≤ -4.2
14,C54U C57U C79A C85U C93G A107G C123G,≤ -4.2
15,C54U C87G C93U C125A G133A A142C,≤ -4.2
16,C54U C76U C85G,-1.18
17,U55A G84A A119C G133U G143A,-4.03
18,U55A A60G A137C,-3
19,C54U G124C,-0.768
20,U55A G140U,-2.9
21,U55A G140A,-4

row,Variant,polymerase ribozyme fitness (log ratio)
1,U55A A121U,-0.372
2,U55A G80A C85A,-1.39
3,C54U G67U G86U C95A,≤ -4.2
4,U55A C116G,0.374
5,U55A C57A C95U,-0.372
6,C54G U56A C96G U102C G136A U144G,-3.08
7,U55A G70A C123G,-3.3
8,U55A A91C,≤ -4.2
9,U55A G86A C93A U104C A113U G126A,≤ -4.2
10,C54U A107U U111G U135A U146C,-4
11,C54G G86A A120U,-2.8
12,U55A A64C,≤ -4.2
13,C54U U134A,-2.84
14,U55A G58U G83C G124C C132G,≤ -4.2
15,U55A C79G G81A,-4.18
16,U55A G67A U127A,≤ -4.2
17,U55A A115U,-1.89
18,U55A C57U G84A G141C,-0.559
19,U55A U56A A106C,-1.06
20,U55A A107G,-3.7
